What was measured:
[1] = AMSA wash performance, specificity of inhibitory effect of propeptide
Procedure: (§1) Washing experiments were performed using Automatic Mechanical Stress Assay (AMSA) in order to assess the wash performance in laundry. The AMSA plate has a number of slots for test solutions and a lid firmly squeezing the laundry sample, the textile to be washed against all the slot openings. During the washing time, the plate, test solutions, textile and lid were vigorously shaken to bring the test solution in contact with the textile and apply mechanical stress in a regular, periodic oscillating manner. For further description see WO02/42740 especially the paragraph “Special method embodiments” at page 23-24.
(§2) The laundry experiments were conducted in Model Detergent B, pH8. The experimental conditions are specified below:
(§3) Final adjustments to the specified pH were done with NaOH or citric acid. Water hardness was adjusted to 15° dH by addition of CaCl2 and MgCl2 (Ca^2+:Mg^2+=4:1) to the test system.
(§4) After washing the textiles were flushed in tap water and excess water was removed from the textiles using filter paper and immediately thereafter the textiles were dried at 85° C. for 5 min.
(§5) The wash performance was measured as the color change of the washed soiled textile. The soil was cream mixed with turmeric. Turmeric contains the colorant curcumin, which function as a pH indicator by having pH dependent color change. Lipase activity leads to release of free fatty acids from the cream acylglycerides and this leads to pH decrease and thereby color change of the curcumin pH indicator. Lipase wash performance can therefore be expressed as the extent of color change of light reflected-emitted from the washed soiled textile when illuminated with white light.
(§6) Color measurements were made with a professional flatbed scanner (EPSON EXPRESSION 10000XL, Atea NS, Lautrupvang 6, 2750 Ballerup, Denmark), which was used to capture an image of the washed soiled textile. To extract a value for the light intensity from the scanned images, 24-bit pixel values from the image were converted into values for red, green and blue (RGB).
(§7) Color change due to lipase activity was measured as the increase in the reflection-emitting of green light (G) relative to the sum of reflected-emitted blue (B) and red (R) light. The wash performance (RP(Wash)) of a lipase relative to a reference lipase (Lipolase™) was calculated as: RP(Wash)=(G/(B+R)(tested lipase)−G/(B+R)(no enzyme))/(G/(B+R)(lipase ref.)−G/(B+R)(no enzyme)).
The inhibitory specificity of the isolated propeptide was determined by mixing the isolated propeptide in a 320:1 molar ratio with 5 different lipases including the active RmL. All enzymes were diluted in 10 mM succinic acid buffer, pH6.5, to a concentration of 1.5 uM and were mixed (1:1) with purified propeptide dilutions. After 3 hours incubation at 4° C. the lipase performance of the incubated lipase-inhibitor samples were determined by Automatic Mechanical Stress Assay (AMSA) as described above. The relative wash performance “RP(wash)” is for each lipase normalized to the wash performance without inhibitor.

[2] = AMSA wash performance, propeptide dose response; conditions: Model B/50 mM glycine pH 8; normalized to wash performance without inhibitor; 3 hours incubation at 4° C.
Procedure: as §1, §2, §3, §4, §5
Color measurements were made with a professional flatbed scanner (EPSON EXPRESSION 10000XL, Atea NS, Lautrupvang 6, 2750 Ballerup, Denmark), which was used to capture an image of the washed soiled textile. […]
as §7
The inhibitory effect of the isolated propeptide (PP) was determined by mixing isolated propeptide in molar excess with separately purified active RmL core-enzyme at increasing molar ratios of propeptide to lipase. […] After 3 hours incubation at 4° C. lipase wash performance of the incubated lipase-inhibitor samples were determined by Automatic Mechanical Stress Assay (AMSA) as described above. […]

[3] = Thermostability by Differential Scanning Calorimetry (DSC); type: physicochemical; conditions: 50 mM HEPES, 100 mM NaCl, 1 mM CaCl2, pH8.0; heating rate 200 K/hr
Procedure: The thermostability of Rhizomucor miehei lipase, RmL (SEQ ID NO: 3) with or without non covalently bound native propeptide (SEQ ID NO: 4) was determined by Differential Scanning calorimetry (DSC) using a VP-Capillary Differential Scanning calorimeter (MicroCal Inc., Piscataway, N.J., USA).
The thermal denaturation temperature, Td (° C.), was taken as the top of denaturation peak (major endothermic peak) in thermograms (Cp vs. T) obtained after heating enzyme solutions in buffer (50 mM HEPES; 100 mM NaCl; 1 mM CaCl2; pH8.0) at a constant programmed heating rate of 200 K/hr. RmL without propeptide added was analyzed at a concentration of 0.42 mg/mL, where as in presence of propeptide the concentration of RmL was 0.34 mg/mL as a consequence of mixing of 440 uL enzyme solution (at 0.42 mg/mL) and 100 uL peptid solution at a concentration of 480 uM (concentration determined by amino acid analysis)
Sample- and reference-solutions (approx. 0.2 mL) were loaded into the calorimeter (reference: buffer without enzyme) from storage conditions for 3 hours (mixing) at 10° C. and thermally pre-equilibrated for approx. 20 minutes at 20° C. prior to DSC scan from 20° C. to 100° C. Denaturation temperatures were determined at an accuracy of approximately +/−1° C.

[4] = Hydrolytic activity, kinetic assay with p-nitrophenyl acyl esters; type: biochemical; conditions: substrates C3, C6, C10, C12, C16 at 1 mM; 50 mM Tris pH 7.7, 0.4% TritonX-100; 405 nm for 5 minutes
Procedure: The hydrolytic activity of RmL with and without propeptide on various fatty acids was investigated in a kinetic assay using p-nitrophenyl acyl esters as substrate. The 100 mM stock solutions in DMSO of the substrates: p-Nitrophenyl butyrate (C3), p-Nitrophenyl caproate (C6), p-Nitrophenyl caprate (C10), p-Nitrophenyl laurate (C12) and p-Nitrophenyl palmitate (C16) (all from Sigma-Aldrich Danmark NS, Kirkebjerg Allé 84, 2605 Brondby; Cat. no.: C3:N-9876, C6: N-0502, C10: N-0252, C12: N-2002, C16: N-2752) were diluted to a final concentration of 1 mM into assay buffer (50 mM Tris; pH 7.7; 0.4% TritonX-100).
RmL with and without propeptide and appropriate controls: Buffer (negative), Lipex™ (positive) RmL with and without propeptide in 50 mM Hepes pH8.0; 10 ppm TritonX-100; 20 mM CaCl2 were added to the substrate solution in the following final concentrations: 0.01 mg/mL; 5×10^−3 mg/mL; […]; and 1.25×10^−4 mg/mL in 96-well NUNC plates (Cat. No: 260836, Kamstrupvej 90, DK-4000, Roskilde). Release of p-nitrophenol by hydrolysis of p-nitrophenyl acyl was monitored at 405 nm for 5 minutes in 10 second intervals on a Spectra max 190 (Molecular Devices GmbH, Bismarckring 39, 88400 Biberach an der Riss, GERMANY).

[5] = AMSA wash performance after activation with detergent and/or protease; set-up: key to No (RP) / Det (RP) / Sav (RP) / Det + Sav (RP): wash performance relative to reference lipase (Lipolase), RP ratio
Procedure: as §1, §2, §3, §4, §5, §6, §7
Wild type RmL without or with propeptide respectively were submitted to no, detergent, protease or detergent+protease treatment prior to performance test in AMSA to test the activation level of the lipase after the treatment. […] […] Wash performance of all samples were determined by Automatic Mechanical Stress Assay (AMSA) as described above.

B1: RmL: Rhizomucor miehei lipase mature protein (SEQ ID NO: 3), without propeptide (protein, listed as Rhizomucor miehei)
chain: SIDGGIRAATSQEINELTYYTTLSANSYCRTVIPGATWDCIHCDATEDLKIIKTWSTLIYDTNAMVARGDSEKTIYIVFRGSSSIRNWIADLTFVPVSYPPVSGTKVHKGFLDSYGEVQNELVATVLDQFKQYPSYKVAVTGHSLGGATALLCALDLYQREEGLSSSNLFLYTQGQPRVGDPAFANYVVSTGIPYRRTVNERDIVPHLPPAAFGFLHAGEEYWITDNSPETVQVCTSDLETSDCSNSIVPFTSVLDHLSYFGINTGLCT
**Q.** With B1 as the molecule, how does the “With inhibitor RP (wash)” value ([1]; propeptide SEQ ID No: 4 in 320:1 molar ratio, 3 hours at 4° C., normalized to wash performance without inhibitor) read?
**A.** 0.02

**Q.** And the “No inhibitor RP (wash)” value ([1]; without propeptide SEQ ID No: 4, normalized per lipase)?
**A.** 1.00

**Q.** And the “RP (wash) Rep. 1” value [2]?
**A.** 1.00

**Q.** What about the “RP (wash) Rep. 2” value [2] of the same molecule?
**A.** 1.00

**Q.** And the “RP (wash) Rep. 3” value [2]?
**A.** 1.00

**Q.** What about the “RP (wash) Rep. 4” value [2] of the same molecule?
**A.** 1.00

**Q.** What about the “Thermostability Td at pH 8.0” value [3] of the same molecule?
**A.** 61 °C

**Q.** And the “hydrolytic activity on p-nitrophenyl acyl esters” value [4]?
**A.** activity in all conditions tested

**Q.** And the “No (RP)” value ([5]; 60 minutes in 10 mM succinic acid pH6.5)?
**A.** 1.00

**Q.** And the “Sav (RP)” value ([5]; 60 minutes in 1.35% (v/v) Savinase in 10 mM succinic acid pH6.5)?
**A.** 0.99

**Q.** And the “Det + Sav (RP)” value ([5]; 60 minutes in 1.35% (v/v) Savinase in 77% (w/w) Detergent B)?
**A.** 0.84

**Q.** What about the “Det (RP)” value ([5]; 60 minutes in 77% (w/w) Model detergent B) of the same molecule?
**A.** 0.89
